Data published in publication PMC2666074 (Biochemistry, 2008).

Experiments:
S100A6 (rabbit, intact) [1] = target: T1, S100A6 (rabbit, intact) (rabbit, UniProt P30801 1-90); test: native MS
cross-linking = target: the molecule itself; test: cross-linking
S100A6 (rabbit, intact) [2] = target: T1, S100A6 (rabbit, intact); test: NMR titration
S100A6 (rabbit, intact) [3] = target: T1, S100A6 (rabbit, intact); test: ITC

| Binder | stoichiometry N (S100A6 (rabbit, intact) [1]) | binding result (cross-linking) | stoichiometry N (S100A6 (rabbit, intact) [2]) [SIP per S100A6 dimer] | Kd (S100A6 (rabbit, intact) [3]) [µM] | binding result (S100A6 (rabbit, intact) [3]) |
| --- | --- | --- | --- | --- | --- |
| SEGLMNVLKKIYEDGDDDMKRTINKAWVESR (peptide, UniProt Q9CXW3 189-219, looked up) [SIP(189–219)] | 2 SIP(189–219) per S100A6 dimer | binds | 2 | 5 | – |
| SIP(178–229), SGS domain of SIP (domain or fragment) EKPSYDTEADPSEGLMNVLKKIYEDGDDDMKRTINKAWVESREKQAREDTEF | – | – | – | – | binds |
| SEGLMNVLKKIYEDG [SIP(189–203)] | – | – | – | 20 | – |
